Laboratory results as given in patent US20220332804A1 (CSL INNOVATION, published 2022).

Tests used:
Assay in all cases: SPR, antibody captured, C2 as analyte;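 also: biacore SPR at 37 °C, anti-C2 mAbs captured via goat anti-human IgG on CM5 chips, double-referenced sensorgrams fit to a 1:1 kinetic or steady-state model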
human C2 R719A = target: T1, human C2 R719A (human, UniProt P06681 21-752)
T1 sequence: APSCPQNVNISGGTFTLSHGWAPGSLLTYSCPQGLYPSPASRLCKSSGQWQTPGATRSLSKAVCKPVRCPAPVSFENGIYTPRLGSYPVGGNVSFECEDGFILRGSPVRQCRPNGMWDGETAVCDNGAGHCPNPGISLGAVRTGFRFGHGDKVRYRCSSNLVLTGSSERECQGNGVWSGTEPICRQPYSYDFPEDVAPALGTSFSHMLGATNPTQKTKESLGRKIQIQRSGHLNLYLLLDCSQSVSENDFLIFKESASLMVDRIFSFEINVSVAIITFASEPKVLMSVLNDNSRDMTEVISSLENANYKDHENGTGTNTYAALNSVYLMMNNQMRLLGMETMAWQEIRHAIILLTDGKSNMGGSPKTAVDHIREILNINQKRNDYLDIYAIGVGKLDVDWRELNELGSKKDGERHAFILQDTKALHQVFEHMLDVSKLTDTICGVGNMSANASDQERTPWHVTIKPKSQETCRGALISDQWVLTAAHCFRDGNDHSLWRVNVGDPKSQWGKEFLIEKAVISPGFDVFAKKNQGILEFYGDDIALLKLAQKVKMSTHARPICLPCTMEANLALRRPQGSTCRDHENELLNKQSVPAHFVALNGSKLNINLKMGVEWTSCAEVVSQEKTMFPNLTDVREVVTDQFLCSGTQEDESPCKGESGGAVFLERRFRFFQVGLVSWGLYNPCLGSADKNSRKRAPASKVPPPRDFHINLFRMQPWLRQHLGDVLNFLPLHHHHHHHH

human C2 H446A = target: T2, human C2 H446A (human, UniProt P06681 21-752)
T2 sequence: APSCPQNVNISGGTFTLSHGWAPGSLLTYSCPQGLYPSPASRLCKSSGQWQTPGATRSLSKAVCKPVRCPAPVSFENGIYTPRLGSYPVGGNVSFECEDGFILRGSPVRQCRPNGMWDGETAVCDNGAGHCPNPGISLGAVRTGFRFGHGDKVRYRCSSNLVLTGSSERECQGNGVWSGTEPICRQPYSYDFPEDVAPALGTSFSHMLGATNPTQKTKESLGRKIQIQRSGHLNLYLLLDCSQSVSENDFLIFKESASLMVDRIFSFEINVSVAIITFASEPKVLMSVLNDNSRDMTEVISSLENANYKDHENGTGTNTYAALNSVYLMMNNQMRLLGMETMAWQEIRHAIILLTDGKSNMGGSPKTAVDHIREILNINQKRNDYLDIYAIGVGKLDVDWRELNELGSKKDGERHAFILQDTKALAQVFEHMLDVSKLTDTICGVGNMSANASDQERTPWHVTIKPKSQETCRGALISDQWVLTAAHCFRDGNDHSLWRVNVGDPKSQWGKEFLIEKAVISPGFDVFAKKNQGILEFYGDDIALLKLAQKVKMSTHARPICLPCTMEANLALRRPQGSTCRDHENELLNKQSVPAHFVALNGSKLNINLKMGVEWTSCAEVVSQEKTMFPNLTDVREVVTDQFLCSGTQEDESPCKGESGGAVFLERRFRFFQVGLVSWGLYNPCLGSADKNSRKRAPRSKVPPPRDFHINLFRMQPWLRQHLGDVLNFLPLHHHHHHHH

human C2 K485A = target: T3, human C2 K485A (human, UniProt P06681 21-752)
T3 sequence: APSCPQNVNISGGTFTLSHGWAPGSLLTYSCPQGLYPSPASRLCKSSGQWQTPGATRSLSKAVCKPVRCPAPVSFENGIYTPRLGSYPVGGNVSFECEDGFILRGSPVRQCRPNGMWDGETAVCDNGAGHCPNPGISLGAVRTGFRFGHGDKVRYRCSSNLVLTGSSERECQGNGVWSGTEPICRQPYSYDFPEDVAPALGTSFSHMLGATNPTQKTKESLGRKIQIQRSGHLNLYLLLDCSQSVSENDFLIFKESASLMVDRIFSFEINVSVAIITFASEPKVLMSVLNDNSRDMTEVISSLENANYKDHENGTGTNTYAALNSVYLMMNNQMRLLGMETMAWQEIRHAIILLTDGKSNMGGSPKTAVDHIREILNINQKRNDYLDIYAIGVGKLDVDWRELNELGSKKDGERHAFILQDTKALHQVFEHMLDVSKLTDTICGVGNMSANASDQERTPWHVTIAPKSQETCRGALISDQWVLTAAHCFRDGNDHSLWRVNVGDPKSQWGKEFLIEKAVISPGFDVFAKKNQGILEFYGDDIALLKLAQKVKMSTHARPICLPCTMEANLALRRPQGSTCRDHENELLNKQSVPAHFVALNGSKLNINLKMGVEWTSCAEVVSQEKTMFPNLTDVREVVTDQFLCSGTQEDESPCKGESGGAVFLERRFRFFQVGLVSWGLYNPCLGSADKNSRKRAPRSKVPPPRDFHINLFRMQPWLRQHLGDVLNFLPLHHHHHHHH

human C2 P486A = target: T4, human C2 P486A (human, UniProt P06681 21-752)
T4 sequence: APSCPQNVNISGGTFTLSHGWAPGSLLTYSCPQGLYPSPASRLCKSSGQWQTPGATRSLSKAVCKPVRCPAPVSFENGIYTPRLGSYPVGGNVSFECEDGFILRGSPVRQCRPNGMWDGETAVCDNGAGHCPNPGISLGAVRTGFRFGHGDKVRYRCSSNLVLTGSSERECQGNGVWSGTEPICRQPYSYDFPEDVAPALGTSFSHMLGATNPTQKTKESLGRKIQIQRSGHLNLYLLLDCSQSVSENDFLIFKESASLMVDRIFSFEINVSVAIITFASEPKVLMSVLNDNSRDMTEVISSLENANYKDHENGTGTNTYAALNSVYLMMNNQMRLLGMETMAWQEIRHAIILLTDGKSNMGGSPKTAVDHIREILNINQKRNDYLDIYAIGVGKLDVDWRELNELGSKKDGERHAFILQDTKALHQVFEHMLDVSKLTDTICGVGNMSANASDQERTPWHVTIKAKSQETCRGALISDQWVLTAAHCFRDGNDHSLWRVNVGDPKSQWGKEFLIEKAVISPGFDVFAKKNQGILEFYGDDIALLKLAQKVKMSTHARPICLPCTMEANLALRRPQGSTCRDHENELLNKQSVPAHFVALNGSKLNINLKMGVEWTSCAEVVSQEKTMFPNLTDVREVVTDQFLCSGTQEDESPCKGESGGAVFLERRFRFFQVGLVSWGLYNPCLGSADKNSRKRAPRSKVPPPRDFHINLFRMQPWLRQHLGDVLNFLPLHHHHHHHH

B1: RF16-226 (antibody, human IgG4 S228P, lambda)
heavy: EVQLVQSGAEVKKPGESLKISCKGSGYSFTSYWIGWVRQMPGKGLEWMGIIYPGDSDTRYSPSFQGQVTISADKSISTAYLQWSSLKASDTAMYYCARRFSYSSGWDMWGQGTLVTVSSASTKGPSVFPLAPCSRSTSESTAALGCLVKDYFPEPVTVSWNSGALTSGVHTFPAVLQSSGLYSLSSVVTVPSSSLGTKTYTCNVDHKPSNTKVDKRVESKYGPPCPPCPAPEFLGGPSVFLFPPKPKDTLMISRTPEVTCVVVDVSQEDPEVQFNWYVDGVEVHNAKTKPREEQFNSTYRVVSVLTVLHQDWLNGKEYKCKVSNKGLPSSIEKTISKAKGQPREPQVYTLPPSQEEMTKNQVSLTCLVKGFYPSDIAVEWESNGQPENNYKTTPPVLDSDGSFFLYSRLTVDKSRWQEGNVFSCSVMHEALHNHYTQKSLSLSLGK
light: SYELTQPPSVSVSPGQTARITCSGDALTSKYVAWYQQKSGLAPLLVIYEDTRRPSGIPAKFSGSSSGSVATLTISGAHGDDEADYYCYSTDASGHQRVFGGGTKLTVLSQPKAAPSVTLFPPSSEELQANKATLVCLISDFYPGAVTVAWKADGSPVKAGVETTKPSKQSNNKYAASSYLSLTPEQWKSHRSYSCQVTHEGSTVEKTVAPTECS
notes: pH-dependent anti-C2 antibody from a phage display library; also called WT
Q: For B1, which Kd (human C2 R719A) is on record?
A: The Kd was 0.0085 µM.

Q: And the Kd (human C2 H446A)?
A: Its Kd is 0.0163 µM.

Q: And the Kd (human C2 K485A)?
A: The Kd was 0.0125 µM.

Q: What about the Kd (human C2 P486A) of the same binder?
A: The Kd was 0.0111 µM.
